From patent US12357802B2, “Self-actuating articles” (priority 2017, dated 2025)

Tested on: Micrococcus lysodeikticus cells
Assay: Lysozyme enzyme activity assay of dissolved micropost tips
Type: biochemical
Conditions: micropost tips 80% lysozyme and 20% PEO 200 k, vs uncompressed powder
Method: To measure the activity of lysozyme, the assay provided by Sigma Aldrich was used which measures the amount of lysed Micrococcus lysodeikticus cells. Briefly, a 200 unit/mL Lysozyme solution in 50 mM Potassium Phosphate Buffer was added to a 0.015% [w/v]Micrococcus lysodeikticus cell suspension in the same buffer. The decrease was recorded in A450 over 5 minutes. Nine micropost tips were fabricated from 80% lysozyme and 20% PEO 200 k and dissolved sets of three micropost tips together. Triplicate assays were performed on each dissolved solution for a total of nine tests and the results were compared to the results of a solution made with lysozyme that was not compressed into a micropost tip.

lysozyme
enzymatic activity after the manufacturing process: maintain their activity
